The target in assay [1] is CD19 on CD19+ Raji B cells (UniProt P15391). The experiment in a line: cell-based or functional assay.
Assay [2] shares this target. The experiment in a line: cell-based or functional assay. The source holds these as a separate data set.

Read-outs that look alike come from different tables or passages of the source.

Chain of UniProt P15391 (P15391 20-556 limits assumed): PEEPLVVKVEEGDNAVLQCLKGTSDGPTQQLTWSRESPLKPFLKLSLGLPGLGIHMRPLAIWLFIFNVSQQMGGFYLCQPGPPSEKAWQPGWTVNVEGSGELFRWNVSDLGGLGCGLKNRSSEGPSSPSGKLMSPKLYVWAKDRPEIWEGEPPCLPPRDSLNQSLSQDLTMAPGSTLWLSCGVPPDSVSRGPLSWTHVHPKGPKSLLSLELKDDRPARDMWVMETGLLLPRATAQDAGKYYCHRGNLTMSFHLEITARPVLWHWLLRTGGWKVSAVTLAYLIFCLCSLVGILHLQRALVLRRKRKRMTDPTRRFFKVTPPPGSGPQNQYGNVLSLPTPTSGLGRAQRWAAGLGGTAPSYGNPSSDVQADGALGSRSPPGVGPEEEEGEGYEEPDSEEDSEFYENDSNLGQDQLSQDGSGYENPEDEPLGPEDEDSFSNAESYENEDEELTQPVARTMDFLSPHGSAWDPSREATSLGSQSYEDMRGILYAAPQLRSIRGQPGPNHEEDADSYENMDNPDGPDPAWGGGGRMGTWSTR

With “anti-CD19 CAR (anti-CD19 CAR cassette as described in WO 2012/079000), expressed on transduced CD4+ T-cells”, the change in activated cells in the population (CD25 and CD69 staining, flow cytometry, 24 h co-culture) was in the range of 3.9 to 12.1% in assay [1] and 0.9 to 84.8% in assay [2].

Source of the values: US20220226381A1.
